Reference: PMC10318527, “Utilization of dietary mixed-linkage β-glucans by the Firmicute Blautia producta” (The Journal of Biological Chemistry, 2023)

Molecular target: BpGH94MLG, glycoside (cellodextrin) phosphorylase of CAZy family GH94 from Blautia producta ATCC 27340 (Blautia producta ATCC 27340)
Experiment: crystal structure; crystal structure of recombinant BpGH94MLG at 2.3 Å; two copies per asymmetric unit; crystallisation methods not shown (supplement)

In the case of “BpGH94MLG, glycoside (cellodextrin) phosphorylase of CAZy family GH94 from Blautia producta ATCC 27340 (enzyme)”, the stoichiometry N is reported as 2.
